Measurements from patent US20230087785A1, “Leucine-Rich Repeat Kinase 2 Allosteric Modulators” (VIB VZW, priority 2020, published 2023).

Biological target: T1, full-length LRRK2 (Homo sapiens, UniProt Q5S007, M2397T/R50H)
T1 construct: Full-length human LRRK2 was expressed and purified based on previously developed protocols; SF tag (FLAG-tag + Twin-Strep-tag); made in house; host or cells: HEK 293T
Experiment: Microscale thermophoresis (MST) affinity measurement
Format: binding
Settings: m-TAMRA-labeled Nb titrated with LRRK2; 500 μM GDP
Text: Binding isotherms are shown, obtained by titrating increasing concentrations of LRRK2 to fluorescently (m-TAMRA)-labeled Nbs and measuring the MST signals. Nbs are classified into four functional groups as defined in FIG. 2d with (FIG. 13A) group 1 Nbs, (FIG. 13B) group 2 Nbs, (FIG. 13C) group 3 Nbs, and (FIG. 13D) group 4 Nbs. In panel (FIG. 13E) two negative controls are shown, where LRRK2 was either titrated to free m-TAMRA or to a m-TAMRA-labeled irrelevant Nb. All measurements were performed in presence of 500 μM GDP, except for Nb42 where GTPγS was used. The corresponding equilibrium dissociation constants (Kd±standard error) obtained by fitting with a quadratic binding equation are given (each data point is the average of three independent measurements with the error bars representing the standard deviation; NB=no MST binding signal detectable).
To determine the binding affinity (dissociation constant KD) of the ten Nbs for LRRK2, two methods were used in parallel: microscale thermophoresis (MST) and bio-layer interferometry (BLI). […] For the BLI experiment LRRK2 was first trapped on a streptavidin-coated biosensor using biotinylated Nb40 as trapping agent (except to assess binding of Nb40, where Nb42 was used as trapping agent), after which binding of all Nbs to LRRK2 was determined. […]

T1 sequence (Q5S007 whole entry R50H/M2397T): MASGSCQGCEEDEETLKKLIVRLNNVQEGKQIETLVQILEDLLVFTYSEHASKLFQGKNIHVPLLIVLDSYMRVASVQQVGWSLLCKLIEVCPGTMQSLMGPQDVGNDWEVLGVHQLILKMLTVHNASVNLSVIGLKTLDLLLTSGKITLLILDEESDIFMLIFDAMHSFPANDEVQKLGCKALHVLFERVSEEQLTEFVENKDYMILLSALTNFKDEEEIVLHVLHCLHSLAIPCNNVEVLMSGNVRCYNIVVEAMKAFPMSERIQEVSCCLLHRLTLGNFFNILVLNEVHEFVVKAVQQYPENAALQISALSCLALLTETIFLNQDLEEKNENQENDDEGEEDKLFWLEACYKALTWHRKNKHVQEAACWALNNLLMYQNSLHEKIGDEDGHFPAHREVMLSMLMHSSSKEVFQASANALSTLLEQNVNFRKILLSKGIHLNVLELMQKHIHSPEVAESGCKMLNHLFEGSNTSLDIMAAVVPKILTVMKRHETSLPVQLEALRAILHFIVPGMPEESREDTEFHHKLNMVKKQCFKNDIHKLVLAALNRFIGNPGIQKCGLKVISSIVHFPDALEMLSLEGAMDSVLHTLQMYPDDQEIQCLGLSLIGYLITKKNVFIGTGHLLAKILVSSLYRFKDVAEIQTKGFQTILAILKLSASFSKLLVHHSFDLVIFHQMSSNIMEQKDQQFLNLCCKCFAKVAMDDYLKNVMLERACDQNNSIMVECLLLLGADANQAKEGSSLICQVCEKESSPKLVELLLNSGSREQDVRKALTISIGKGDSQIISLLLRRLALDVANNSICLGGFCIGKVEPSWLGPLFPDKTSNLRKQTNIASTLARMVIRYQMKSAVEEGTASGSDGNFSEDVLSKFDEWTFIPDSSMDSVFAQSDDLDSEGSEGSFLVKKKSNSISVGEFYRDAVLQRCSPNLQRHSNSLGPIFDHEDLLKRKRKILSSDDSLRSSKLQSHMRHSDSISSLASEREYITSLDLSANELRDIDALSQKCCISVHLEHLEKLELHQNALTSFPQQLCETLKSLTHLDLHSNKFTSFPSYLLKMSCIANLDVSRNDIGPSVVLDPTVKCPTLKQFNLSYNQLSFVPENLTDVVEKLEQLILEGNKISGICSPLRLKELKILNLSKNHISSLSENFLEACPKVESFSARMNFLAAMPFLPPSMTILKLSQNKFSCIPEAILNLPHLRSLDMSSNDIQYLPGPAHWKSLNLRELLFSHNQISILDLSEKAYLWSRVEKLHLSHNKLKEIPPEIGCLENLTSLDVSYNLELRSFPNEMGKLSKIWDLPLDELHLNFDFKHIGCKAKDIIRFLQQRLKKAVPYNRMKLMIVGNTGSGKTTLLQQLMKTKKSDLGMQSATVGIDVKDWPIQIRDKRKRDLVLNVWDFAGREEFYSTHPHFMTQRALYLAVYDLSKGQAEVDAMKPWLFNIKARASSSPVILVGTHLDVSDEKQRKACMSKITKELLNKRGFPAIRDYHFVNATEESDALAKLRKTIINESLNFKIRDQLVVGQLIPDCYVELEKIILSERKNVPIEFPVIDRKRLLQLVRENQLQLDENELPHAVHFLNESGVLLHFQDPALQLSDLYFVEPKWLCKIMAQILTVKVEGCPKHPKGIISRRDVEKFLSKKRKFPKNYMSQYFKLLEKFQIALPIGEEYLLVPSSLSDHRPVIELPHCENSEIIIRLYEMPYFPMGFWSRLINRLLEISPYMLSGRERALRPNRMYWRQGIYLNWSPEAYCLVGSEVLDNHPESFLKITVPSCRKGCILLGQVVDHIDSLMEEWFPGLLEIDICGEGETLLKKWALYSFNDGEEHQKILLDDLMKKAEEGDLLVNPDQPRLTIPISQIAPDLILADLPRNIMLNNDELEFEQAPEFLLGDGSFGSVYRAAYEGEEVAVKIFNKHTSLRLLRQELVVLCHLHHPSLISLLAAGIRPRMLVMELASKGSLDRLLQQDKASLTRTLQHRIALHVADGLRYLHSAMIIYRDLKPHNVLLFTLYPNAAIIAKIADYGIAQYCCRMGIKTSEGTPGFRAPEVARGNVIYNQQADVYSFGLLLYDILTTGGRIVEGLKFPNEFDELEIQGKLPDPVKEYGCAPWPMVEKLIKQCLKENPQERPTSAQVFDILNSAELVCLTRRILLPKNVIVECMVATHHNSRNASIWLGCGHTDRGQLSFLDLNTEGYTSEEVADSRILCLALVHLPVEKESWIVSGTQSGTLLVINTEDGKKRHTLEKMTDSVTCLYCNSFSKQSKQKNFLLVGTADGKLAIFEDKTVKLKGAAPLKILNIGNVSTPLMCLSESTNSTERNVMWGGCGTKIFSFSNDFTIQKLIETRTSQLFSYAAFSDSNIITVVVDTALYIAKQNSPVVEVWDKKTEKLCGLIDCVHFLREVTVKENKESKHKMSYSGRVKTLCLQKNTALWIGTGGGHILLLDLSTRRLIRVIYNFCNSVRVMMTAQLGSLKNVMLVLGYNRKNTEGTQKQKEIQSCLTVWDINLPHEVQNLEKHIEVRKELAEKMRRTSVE

B1: Nb23: LRRK2-specific Nanobody, SEQ ID NO: 3 (protein)
VHH: MAQVQLVESGGGLVQAGGSLRLSCAASGRTFSRYTMGWFRQAPGKDREFVARITTSGAVTTYADSAKGRFTISRDNAKNTVYLQMNTLKPEDTAVYYCAAGQGQLSSQSRFVDYWGQGTQVTVSS
modifications: Nanobody CA13612
In the case of B1, the “KD (nM)-MST” value is reported as “did not generate a change in thermophoresis behavior”.
